# The nanobody polyreactivity screen of Harvey et al. (2022)
# Experiment: yeast display, Sf9 membrane polyspecificity reagent, FACS + sequencing; frameworks hold sequencing errors
# How it was run: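 Nanobodies came from a synthetic yeast display library in Saccharomyces cerevisiae BJ5465, induced with galactose for 36–48 hours and stained for 1 hour at 4 °C with 10% biotinylated, detergent-solubilized Sf9 membrane reagent. Cells were enriched on streptavidin microbeads and then FACS-sorted, with low and high (top ~1%) gates set on anti-HA fluorescence for expression and streptavidin fluorescence for reagent binding. Each polyreactivity label reflects the gate a clone came from. Genes were amplified by colony PCR, sequenced by MiSeq 2 × 250 and filtered by CDR length.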
row,Sequence,polyreactivity (PSR sort gate)
1,QVQLVESGGGLVQARGSLRLSCAASGSIFYNYGMGWYRQAPGKERELVAAIRASGDSTYYADSVKGRFTISRDNAKNTVYLQMNSLKPEDTAVYYCAARPNQSYYGLYYYWGQGTQVTVSS,low polyreactivity
2,QVQLVESGGGLVQARGSLRLSCAASGSIIDYYAMGWYRQAPGKERELVAAINISGGDTYYADSVKGRFTISRDNAKNTVYLQMNSLKPEDTAVYYCNADRFYIDYSNTYDSIRDYWGQGTQVSVSS,low polyreactivity
3,QVQLVESGGGLVQARGSLRLSCAASGSTFPYYTMGWYRQAHWKERELVAAITTRGGGTYYADSVKGRFTISRDNAKNTVYLKMNSLKPEDTAVYYCAAKTIYDTRGIRHYYWGKGTQVTVSS,high polyreactivity
4,QVQLVESGGGLVQARGSLRLSCAASGSTFTRYGMGWYRQAPGKERELVAAITTSGSSTYYADSVKGRFTISRDNAKNTVYLQMNSLKPEDTAVYYCAADWSSWGFDYWGQGTQVTLSS,low polyreactivity
5,QVQLVESGGGLVQARGSLRLSCAASGYIFFGNAMGWYRQAPGKERELVAAIRWRGTSTYYADSVKGRFTISRDNAKNTVYLQMKSLKPEDTAVYYCAADVVSSNFYGTFLYDYDYWGQGTQVTVSS,low polyreactivity
6,QVQLVESGGGLVQARGSLRLSCAASLLTFGKNDMGWYRQAPGKEREFVAAITSRGGYTYYADSVKGRFTISRDNAKNTVYSQMNSLKPEDTAVYYCNREYKRPSQRTEHSYWGQGTQVTVSS,low polyreactivity
7,QVQLVESGGGLVQARGSLRLSCASSGSIFNYYDMGWYRQAPGKERELVAAIDTSGGSTYFADSVKGRFTISRDNAKNTVYLQMNRLKPEDTAVYYCAAEWPYYDKIYDYWGQGTQVTVSS,low polyreactivity
8,QVQLVESGGGLVQARGSLRLSCASSGSIFRFNGMGWYRQPPGKERELVATISSGGRTNYADSVKGRFTISRDNAKNTVYLQMNSLKPEDTAVYYCAARSPLRTSYYYPYYYWGQGTQVTVSS,high polyreactivity
9,QVQLVESGGGLVQARGSLRLSFAASGYTLRPNGMGWYRQAPGKERELVAAISSGGSTYYADSVKGRFTISRDNAKNTVYLQLNSLKPEDTAVSYCAAEYWYDYWVQGTQVTVSS,low polyreactivity
10,QVQLVESGGGLVQARGTRRLSSAACGRTFGSYAMGWYRQAPGKERELVAAISRSDGSTYYADSVKGRFSISRDNEKNTVYFQMNSLKPEDTAVYYCAAKRWYVSYDYDYWGQGTQVTVSS,high polyreactivity
11,QVQLVESGGGLVQARRRLRLSCAASGRTFRENFMGWYRQEPGKEREFVAISSSGASTYYADSVKGRFTISRDNAKNTVYLQMNSLKPEDTAVYYCAAKLYGAPYSKYYYWGHGTQVTVSS,high polyreactivity
12,QVQLVESGGGLVQASGSLRLSCAASGLTFYLNAMGWYRPEHGKERELVAGISYTGGSTYYADSVKGRFTISRDNAKNTVYLQMNSLKPEDTAVYSCARDNFYYGVWDYGYWGQGTQVTVSS,low polyreactivity
13,QVQLVESGGGLVQAVGRLRLSCAASGLTFQYYAMGWYRQAPGKERELDAAISRSGGRSYYADSVKGRFTISRDNAKYTVYLQMISLKPEDSAVSYCNAVRRFASPTRHYYWGQGTQVTVSS,high polyreactivity
14,QVQLVESGGGLVQAVGSHRLSCAASGSIFFWYTMGWYRQPPGKERELVATITGSGSSTTYADSVKGRFTISRDNAKNTVYLQMNSLKPVDTAVYYCAAADIIDHSFPYDYWGQGTQVTVSS,low polyreactivity
15,QVQLVESGGGLVQAVGSLRLICAPSGSIFGTNAMGWYRQAPGKERELVATISYGDGSTYYADSVKGRFTISRDNAKNTVYLQMNSLKPEDTAVYYCNTGVYSSGGPLDYWGQGTQVTVSS,low polyreactivity
16,QVQLVESGGGLVQAVGSLRLSCAASGFTFRGYDMRSYRQAPGKQRELVAGITWGDDSTYYADSVKRRFTISRDKAKNTGYLQMNILKPEDTAVYYCAAEYVFHDVLWWIYGYWRQGTQVTVSS,high polyreactivity

row,Sequence,polyreactivity (PSR sort gate)
1,QVQLVESGGGLVQAVGSLRLSCAASGRIFVYNAMGWYRQAPGKERELVASITSSGGSTYYADSVKGRFTISRDNAKNTFYLQMNSLKPEDTAVYYCAADVQPDTRSTPEMDYWGQGTQVTVSS,low polyreactivity
2,QVQLVESGGGLVQAVGSLRLSCAASGRTFDEYAMGWYRQAPGKERELVAAISTRGGSTYYADSVKGRFTISRDNAKNTVYLQMNSLKPEDTAVYYCAADYTKSSSPWPGYYWGQGTQVTVSS,high polyreactivity
3,QVQLVESGGGLVQAVGSLRLSCAASGRTLSRNAKGWYRQAPGKEREFVAAISSRGTSTYYADSVKGRFTISRDNAKNSVYLQMNSLKPEDTAVYYCATTLGGNYGYDYWGQGTQVTVSS,high polyreactivity
4,QVQLVESGGGLVQAVGSLRLSCAASGSIFVKYAMGWYRQAPGKERELVAALSRSGGSTYYADSVKGRFTISRDNAKNTVYLQMNSLKPEDTEVYYCAATYYKGMNYWGQGTQVTVSS,high polyreactivity
5,QVQLVESGGGLVQAVGSLRLSCAASGSTFGEYAMGWYRQAPGKERELVAVITSDDNTYYADSVKGRFTISRDNAKNTVYLQMNSLKPEDTAVYYCATDDRRRFKYWGQGTQVTVSS,high polyreactivity
6,QVQLVESGGGLVQAVGSLRLSCAASGSTFGRNAMGWYRQAPGKERELVAAISWSASRTYYADSVKGRFTISRDNAKNTVYLQMNSLKPEDTAVYFCAAEYDVGYFGYEYWGQGTQVTVSS,high polyreactivity
7,QVQLVESGGGLVQAVGSLRLSCAASGSTFKRNAMGWYRQAPGKERELVAAITSGGSTYYADSVKGRFTISRDNAKNTVYLQMNSLKPEVTAVYYCNKVPYLKLKMDYWGQGTQVTVSS,high polyreactivity
8,QVQLVESGGGLVQAVGSLRLSCAASGSTFSRYAMGWYRQAPGKERELVAAISWGGNTYYADSVKGRFTISRDNAKNTVYLQMNSLKPVDTAVYYCNRYSKLYNTMDYWGQGTQVTVSS,high polyreactivity
9,QVQLVESGGGLVQAVRSLRLSCAASGFTFNGNAMGWYRQAPGKDRELVAAISYSGGSTYYADSVKGRFTISRDNAKNTVYLQMNSLKPEDTAVYYCAADRTAYSVRAYTKDHSGHDYWGQGTQVTVSS,low polyreactivity
10,QVQLVESGGGLVQEGASLRLSCAASGSIVGYYAMGWYRQAHGKERELVAAITRYGGRTYYADSVKGRFTISRDNGKNTVYLQMNSLKPEDTAVYYCNAANSRYAYYYWGQGTQVTVSS,high polyreactivity
11,QVQLVESGGGLVQEGGCLRLSSAASGSIFKSNAMGWYRQAPGKERELVATISRIGGSTYYADSVKGRFTISRDNAKNTVYLQMNCLKPEDTAVYYFAARRYLYTVGYGPRRGLVYWGQGTQVTVSS,high polyreactivity
12,QVQLVESGGGLVQEGGSHSLSCAASGRTFKYKAMGWSRPAPGKERELVASISGSGGRTYYADSVKGRFTISRDIAKNSVFLQMYRLNPEDTAVYFCNATRVKWLDWGQGTQVTVSS,high polyreactivity
13,QVQLVESGGGLVQEGGSIRLSCAASGSTFFLYAMGWYRQAPGKERELVAAITYTDGDTYYADSVKGRFTISRDNAKNTVYLQMNSLKPEDNAVYYCNAGGDEPVYGSGYDYWGQGTQVTVSS,low polyreactivity
14,QVQLVESGGGLVQEGGSLRLICAASGNTSPFYSMGWYRQAPGKERELVAAISANGGSTTYADSVKGRFTISRDNAKNTVYLQMNSLKTEVTAVYYCNTYYWYSGSPYVYWGQGTQVTVSS,low polyreactivity
15,QVQLVESGGGLVQEGGSLRLICAASGRILRDNAMGWYRQAPGKERELVAAISVSTVSTYYADSVKGLFTISRDNANNTVYFHMNSLKPEDTAVYYCNADATDSYPEKDEHDSWGQGTQVTVSS,low polyreactivity
16,QVQLVESGGGLVQEGGSLRLICAASGRTLYHYVMGWYSQAPGKERELVAAISSGGSTYYADSVKGRFTISRDNAKNTVYLQMNSLKPEDTAVYFCAAGRRGDWGQGTQVTVSS,high polyreactivity
